The record followed here is publication doi:10.1101/2024.06.25.600654 (bioRxiv, 2024).

The data set deals with the molecule itself. Briefly: SEC-SAXS.

B1: ParB1 from Vibrio cholerae (vcParB1) (natural protein)
chain: MTKRGLGKGLDALLATSSLAREKQQVASLSQSMSAEGELADLSISNLKPGIYQPRKDLSPEALEELAASIQSQGIIQPIVVRHLPTGGYEIIAGERRWRAAKQAGLKQVPCLIKQVEDRGAIAMALIENIQREDLNAMEEAQALERLQNEFNLTHQQVAEVIGKSRTTVTNLLRLNQLSDDVKRLLETKQLEMGHARALLMLEGEQQVEIAQQVAKKQLTVRQTEQLVKKCLSDPSDAKNVSEDLEIQQLSQNLSEKLAAKVSIVRTPNGKSKVTISLDEPHKLELLIAKLQN
The stoichiometry N is a count of units in the complex or per binding partner. In the case of B1, the “stoichiometry N” value was determined as 2.
